Data from article PMC4282423.

Target: T1, BldD (His-tagged) (Streptomyces coelicolor) (UniProt Q7AKQ8)
T1 sequence: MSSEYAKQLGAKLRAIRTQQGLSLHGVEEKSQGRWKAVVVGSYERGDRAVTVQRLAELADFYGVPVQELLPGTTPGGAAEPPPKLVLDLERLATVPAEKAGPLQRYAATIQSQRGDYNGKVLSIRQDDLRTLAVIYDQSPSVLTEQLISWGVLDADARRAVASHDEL
Assay: DNase I footprinting
Settings: EMSA and extract footprinting: 25 mM HEPES pH 7.5, 4 mM DTT, 1 mM ATP, 10 mM Mg-acetate, 4% glycerol, 1 ug poly(dI-dC), 30 C, 20 min; purified BldD …

Sequence: GTGCAGGCCGTCAGCAGCAGGGCGGAGGCGCCCAGGGCACCGACCACGGCCAGCGAACGCAAGGGGGGAAGTCGTCGTGCAGAGCTCATGATGCTGTCCGTAACCGCTCCGTCACGCAGACACACCGGACCGGTATGAAAATCACCCTATTGGCCGGGGTGGGGCGACGTCCCGTGGGCGGCGGGACCGGGAGCCTTCAG (double strand) [sspA promoter footprint probe (7434_F1/7434_R1)]
- binding: binds
